Results reported in patent US20200353078A1 (AstraZeneca / MedImmune, published 2020).
Residue numbers refer to the chain shown, from its start. Where two headings read alike, the source gives them in different places. Values belong to the binder of their own block, whether it stands above or below them.

Experiments:
[1] = molecular target: T1, Human IL-33 (Axxora/Adipogen AG-40B-0038) (human, UniProt O95760 112-270, limits assumed); assay: cell-based or functional assay
T1 sequence (looked up): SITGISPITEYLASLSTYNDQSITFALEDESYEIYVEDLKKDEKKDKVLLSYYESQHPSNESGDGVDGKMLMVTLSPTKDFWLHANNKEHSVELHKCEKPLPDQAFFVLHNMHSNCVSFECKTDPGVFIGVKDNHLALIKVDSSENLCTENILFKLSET

[2] = molecular target: T1, Human IL-33 (Axxora/Adipogen …); assay: cell-based or functional assay; remark: listed apart in the source
[3] = molecular target: T2, Full-length human IL-33 (amino acids 1-270), HEK293-EBNA cell lysate (human, UniProt O95760 1-270); assay: cell-based or functional assay
T2 sequence (looked up): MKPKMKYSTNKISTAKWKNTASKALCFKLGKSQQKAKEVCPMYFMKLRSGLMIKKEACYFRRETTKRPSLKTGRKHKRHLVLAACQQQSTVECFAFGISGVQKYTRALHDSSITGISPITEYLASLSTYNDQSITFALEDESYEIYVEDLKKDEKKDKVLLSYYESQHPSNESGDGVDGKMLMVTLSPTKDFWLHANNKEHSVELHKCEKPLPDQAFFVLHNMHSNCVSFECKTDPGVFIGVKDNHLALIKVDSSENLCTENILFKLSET

His10/Avi Human IL33-01 [4] = molecular target: T3, His10/Avi Human IL33-01 (human); assay: cell-based or functional assay
T3 chain: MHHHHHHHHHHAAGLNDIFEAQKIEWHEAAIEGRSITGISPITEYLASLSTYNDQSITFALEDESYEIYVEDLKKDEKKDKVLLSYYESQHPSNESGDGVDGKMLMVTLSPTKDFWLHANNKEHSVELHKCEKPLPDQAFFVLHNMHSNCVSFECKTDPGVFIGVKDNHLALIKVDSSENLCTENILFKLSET

His10/Avi Cyno IL-33 = molecular target: T4, His10/Avi Cyno IL-33 (cynomolgus monkey); assay: HTRF epitope competition, IgG titrated; competitor DyLight labelled 33_640117 IgG; 1 hour
T4 construct: also called Cynomolgus 10His Avitag IL-33; biotinylated His Avi cynomolgus IL-33
T4 chain: T3 chain with E77K, N94S, H118Q, M146R, H147S, S148F, S177Y, C182G, T183S, T193I
Experimental: (§1) As the epitope competition assay utilising 33_640027 reached its limit of sensitivity, an assay using 33_640117 was used for testing purified scFv samples. The assay was essentially as described for the 33v20064 competition assay with the following modifications: 2.5 nM DyLight labelled 33_640117 was prepared and 2.5 microlitres added to the assay plates. This was followed by the addition of 2.5 microlitres of a solution containing 0.12 nM biotinylated human IL-33-01 combined with 0.75 nM streptavidin cryptate detection (Cisbio International, 610SAKLB) for the human assay or a solution containing 0.24 nM biotinylated cynomolgus IL-33 combined with 1.5 nM streptavidin cryptate detection (Cisbio International, 610SAKLB) for the cynomolgus assay. Fluorescence was read after one hour and overnight incubation.
(§2) The ability of anti-IL-33 antibodies to inhibit the binding of biotinylated His Avi human IL-33 or cynomolgus His Avi IL-33 to the DyLight labelled 33_640117 IgG was assessed in a biochemical HTRF® (Homogeneous Time-Resolved Fluorescence, Cisbio International) competition assays as described above.

His10/Avi Human IL33-01 [5] = molecular target: T3, His10/Avi Human IL33-01; assay: as above
Experimental: as §1, §2

His10/Avi Human IL33-01 [6] = molecular target: T3, His10/Avi Human IL33-01; assay: HTRF epitope competition, IgG titrated; competitor DyLight labelled 33_640117 IgG; overnight
Experimental: as §1, §2

[7] = molecular target: T5, Recombinant human IL-33 (construct not named in the example) (human, UniProt O95760 112-270, limits assumed); assay: SPR Biacore T100, 25 C, biotinylated human IL-33 on streptavidin C1 chip, Fab as analyte
T5 construct: also called Recombinant, enzymatically biotinylated human IL-33 (produced in-house); IL-33 (200 nM)
T5 sequence (looked up): T1 sequence (looked up)
Experimental: Fab fragments were generated by papain cleavage from full length IgG1 and purified by SEC. […] Streptavidin was covalently immobilised to a C1 chip surface using standard amine coupling techniques at a concentration of […] in 10 mM Sodium acetate pH 4.5. […] Recombinant, enzymatically biotinylated human IL-33 (produced in-house) was titrated onto the streptavidin chip surface at […] in HBS-EP+ buffer to enable ˜30 RUs of Fab binding at saturation (Rmax). This low level of analyte binding ensured minimal mass transport effects.
The IL-33 Fab was serially diluted from 5 nM to 78 pM in HBS-EP+ buffer and flowed over the chip at 50 μl/min, with 3 minutes association and up to 30 minutes dissociation. Multiple buffer only injections were made under the same conditions to allow for double reference subtraction of the final sensorgram sets, which were analysed using the BiaEval software (version 2.0.1). The chip surface was fully regenerated with pulses of 3M MgCl₂.

[8] = molecular target: T1, Human IL-33 (Axxora/Adipogen …); assay: cell-based or functional assay; remark: listed apart in the source

Huvec IL-6 production, maximum inhibition [1]: ~70%
B1: IL330377 IgG1 (antibody, V domains shown)
VH: EVQLLESGGGLVQPGGSLRLSCAASGFTFSSYAMSWVRQAPGKGLEWVSASDMLYGSTYYADSVKGRFTISRDNSKNTLYLQMNSLRAEDTAVYYCSQNILGYFDSWGRGTLVTVSS
VL: SYVLTQPPSVSVSPGQTARITCSGDALPKQYAHWYQQKPGQAPALVIYKDTERPSGIPERFSGSSSGTTVTLTISGVQAEDEADYYCQSADSTGYHRVFGGGTKVTVL

IC50, Huvec IL-6 production [2]: 2.1 nM
IC50, Mast cell IL-6 production [2]: 1.2 nM
B2: IL330388_fgl IgG1 (antibody, V domains shown)
VH: EVQLLESGGGLVQPGGSLRLSCAASGFTFSSYAMSWVRQAPGKGLEWVSASTPWQGSTYYADSVKGRFTISRDNSKNTLYLQMNSLRAEDTAVYYCVRWYWGWIDSWGRGTLVTVSS
VL: B1 VL with V3E, T5M, A44V, Q88M, A90S, S92P, T93S, Y95A, H96S, V105L

IC50, Huvec IL-6 production [2]: 6.6 nM
IC50, Mast cell IL-6 production [2]: 1.3 nM
B3: IL330377_fgl IgG1 (antibody, V domains shown)
VH: B1 VH
VL: B1 VL with V3E, T5M, A44V, V105L

Huvec IL-6 production, maximum inhibition [1]: ~70%
B4: IL330398 IgG1 (antibody, V domains shown)
VH: B2 VH
VL: B1 VL with Q88L, A90S, S92A, T93S, Y95A, H96S

IC50, Huvec IL-6 production [2]: 1.5 nM
IC50, Mast cell IL-6 production [2]: 0.9 nM
B5: IL330398_fgl IgG1 (antibody, V domains shown)
VH: B2 VH
VL: B1 VL with V3E, T5M, A44V, Q88L, A90S, S92A, T93S, Y95A, H96S, V105L

IC50, Huvec IL-6 production [2]: 2.8 nM
IC50, Mast cell IL-6 production [2]: 1.5 nM
B6: IL330396_fgl IgG1 (antibody, V domains shown)
VH: B2 VH
VL: B1 VL with V3E, T5M, A44V, Q88M, A90S, S92D, Y95A, H96S, V105L

IC50, Huvec IL-8 assay vs. full length IL-33 cell lysate [3]: 0.091 nM
IC50, Huvec IL-8 assay vs. His Avi IL-33 (His10/Avi Human IL33-01 [4]): 0.056 nM
IC50 (His10/Avi Cyno IL-33): 1.8 nM
IC50 (His10/Avi Human IL33-01 [5]): 0.1 nM
IC50 (His10/Avi Human IL33-01 [6]): 0.1 nM
B7: 33_640237 IgG1 (antibody, V domains shown)
VH: EVQLLESGGGLVQPGGSLRLSCAASGFTFSSYAMSWVRQAPGKGLEWVSGIADDFTSTYYADPVKGRFTISRDNSKNTLYLQMNSLRAEDTAVYYCARDLWMMNYAGGLRYPFGYWGQGTTVTVSS
VL: SYVLTQPPSVSVSPGQTASITCSGERMGDKYAAWYQQKPGQSPVLVIYRDTKRPSGIPERFSGSNSGNTATLTISGTQAIDEADYYCGVLKQDTGVFGGGTKVTVL
notes: IgG1; also called ZZ1M37-E06

IC50, Huvec IL-8 assay vs. full length IL-33 cell lysate [3]: 0.095 nM
IC50, Huvec IL-8 assay vs. His Avi IL-33 (His10/Avi Human IL33-01 [4]): 0.032 nM
IC50 (His10/Avi Cyno IL-33): 0.6 nM
IC50 (His10/Avi Human IL33-01 [5]): 0.1 nM
IC50 (His10/Avi Human IL33-01 [6]): 0.1 nM
B8: 33_640076-4 IgG1 (antibody, V domains shown)
VH: B7 VH with A52S, D53A, D54I, F55D, T56Q, P63S, M103E, Y105W, A106V, T121M
VL: B7 VL with I80M, G88E, L90K, Q92S
notes: IgG1

Kd [7]: 0.00043 nM
koff [7]: 9.42e-06 s⁻¹
kon [7]: 2.2e+07 M⁻¹ s⁻¹
B9: 33_640087-7B Fab (Fab, V domains shown)
VH: EVQLLESGGGLVQPGGSLRLSCAASGFTFSSYAMSWVRQAPGKGLEWVSGISAIDQSTYYADSVKGRFTISRDNSKNTLYLQMNSLRAEDTAVYYCARQKFMQLWGGGLRYPFGYWGQGTMVTVSS
VL: B7 VL with R26G, I80M, L90I, K91Q, Q92D, D93N, V103L
notes: Fab made by papain cleavage of full length IgG1

Kd [7]: 3.34 nM
koff [7]: 0.0326 s⁻¹
kon [7]: 9.76e+06 M⁻¹ s⁻¹
B10: 33_640001 Fab (Fab, V domains shown)
VH: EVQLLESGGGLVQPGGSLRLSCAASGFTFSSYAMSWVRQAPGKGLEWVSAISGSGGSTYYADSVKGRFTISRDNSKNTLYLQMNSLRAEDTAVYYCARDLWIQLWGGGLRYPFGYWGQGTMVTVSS
VL: B7 VL with R49Q, I80M, G88Q, L90W, K91D, Q92S, D93S
notes: as for B9

IC50, Huvec IL-8 assay vs. full length IL-33 cell lysate [3]: 0.095 nM
IC50, Huvec IL-8 assay vs. His Avi IL-33 (His10/Avi Human IL33-01 [4]): 0.031 nM
IC50 (His10/Avi Cyno IL-33): 0.2 nM
IC50 (His10/Avi Human IL33-01 [5]): 0.1 nM
IC50 (His10/Avi Human IL33-01 [6]): 0.1 nM
B11: 33_640082-7 IgG1 (antibody, V domains shown)
VH: B9 VH
VL: B7 VL with I80M
notes: IgG1

Kd [7]: 0.0034 nM
koff [7]: 0.000105 s⁻¹
kon [7]: 3.08e+07 M⁻¹ s⁻¹
B12: 33_640050 Fab (Fab, V domains shown)
VH: B9 VH with G50A, A53G, I54S, D55G, Q56G, A97P, Q99H
VL: B7 VL with R49Q, I80M, G88Q, L90W, K91D, Q92S, D93S
notes: as for B9

IC50, Huvec IL-8 assay vs. full length IL-33 cell lysate [3]: 0.132 nM
IC50, Huvec IL-8 assay vs. His Avi IL-33 (His10/Avi Human IL33-01 [4]): 0.036 nM
IC50 (His10/Avi Cyno IL-33): 0.8 nM
IC50 (His10/Avi Human IL33-01 [5]): 0.3 nM
IC50 (His10/Avi Human IL33-01 [6]): 0.3 nM
B13: 33_640084-2 IgG1 (antibody, V domains shown)
VH: B9 VH with T28A, G50A, A53G, I54S, D55G, Q56G
VL: B7 VL with I80M, G88Q, L90W, K91R, Q92D, T94S, G95P, V96I
notes: IgG1

IC50, Huvec IL-8 assay vs. full length IL-33 cell lysate [3]: 0.081 nM
IC50, Huvec IL-8 assay vs. His Avi IL-33 (His10/Avi Human IL33-01 [4]): 0.026 nM
IC50 (His10/Avi Cyno IL-33): 0.2 nM
IC50 (His10/Avi Human IL33-01 [5]): 0.1 nM
IC50 (His10/Avi Human IL33-01 [6]): 0.1 nM
B14: 33_640086-6 IgG1 (antibody, V domains shown)
VH: B9 VH with A53G, Q56T, Q99D
VL: B7 VL with I80M, G88E, L90K, K91V, Q92K
notes: IgG1

IC50, Huvec IL-8 assay vs. full length IL-33 cell lysate [3]: 0.097 nM
IC50, Huvec IL-8 assay vs. His Avi IL-33 (His10/Avi Human IL33-01 [4]): 0.03 nM
IC50 (His10/Avi Cyno IL-33): 0.2 nM
IC50 (His10/Avi Human IL33-01 [5]): 0.1 nM
IC50 (His10/Avi Human IL33-01 [6]): 0.1 nM
B15: 33_640082-6 IgG1 (antibody, V domains shown)
VH: B9 VH with A53G, Q56T
VL: B7 VL with I80M
notes: IgG1

IC50 (His10/Avi Cyno IL-33): 10 nM
IC50 (His10/Avi Human IL33-01 [5]): 0.3 nM
IC50 (His10/Avi Human IL33-01 [6]): 0.6 nM
B16: 33_640081 IgG1 (antibody, V domains shown)
VH: EVQLLESGGGSVQPGGSLRLSCAASGFTFSSYAMNWVRQAPGKGLEWVSAISGSGGSTHYADSVKGRFTISRDNSKNTLYLQMNSLRAEDTAVYYCGRAKFMQLWGGGLRYPLGYWGQGTMVTVSS
VL: SYVLTQPPSVSVSPGQTASITCSGERMGDKYAAWYQQKPGQSPVLVIYQDTKRPSGIPERFSGSNSGNTATLTISGTQATDEADYYCQVWAADDTGVFGGGTKVTVL
notes: IgG1; also called ZZ1JMB-H05

IC50, Mast cell IL-6 production [8]: 22 nM
B17: IL330180 IgG (antibody, V domains shown)
VH: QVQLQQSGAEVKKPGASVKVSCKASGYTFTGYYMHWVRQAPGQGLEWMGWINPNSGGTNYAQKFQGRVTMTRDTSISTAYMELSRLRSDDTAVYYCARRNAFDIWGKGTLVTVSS
VL: QPVLTQPPSVSEAPRQRVTISCSGSSSNIGNNAVNWYQQLPGTAPKLLIYRNNQRPSGVPDRFSGSKSGTSASLAISGLRSEDEADYYCAAWDDSLSGWVFGGGTKVNVL
